The target of experiment [1] is HLA-A*31:01. Put plainly: IEDB peptide-MHC binding, purified MHC/competitive/fluorescence; filed as Kd, often an IC50 or EC50 that approximates it; ≥ and ≤ were set here for values at or beyond the usual limits of such assays.
For experiment [2], the target named is HLA-A*03:01. Put plainly: IEDB peptide-MHC binding, purified MHC/direct/fluorescence; filed as Kd, often an IC50 or EC50 that approximates it; ≥ and ≤ were set here for values at or beyond the usual limits of such assays.
In experiment [3] the target is HLA-A*11:01. The experiment is described as above.
For experiment [4], the target named is HLA-B*51:01. The experiment can be described thus: IEDB peptide-MHC binding, purified MHC/competitive/radioactivity; filed as Kd, often an IC50 or EC50 that approximates it; ≥ and ≤ were set here for values at or beyond the usual limits of such assays.
Experiment [5] deals with HLA-B*35:01. The experiment is described as above.
The target in experiment [6] is HLA-B*53:01. The description is as above.
Experiment [7] has as its target HLA-B*07:02. The description is as above.
Experiment [8] deals with HLA-B*54:01. The description is as above.
Experiment [9] has as its target HLA-A*02:11. Put plainly: IEDB peptide-MHC binding, purified MHC/direct/fluorescence; filed as Kd, often an IC50 or EC50 that approximates it; ≥ and ≤ were set here for values at or beyond the usual limits of such assays. Conditions: source organism: Bacillus cereus H3081.97.
Experiment [10] has as its target HLA-B*15:17. Described as above.
In experiment [11] the target is HLA-A*01:01. The experiment can be described thus: IEDB peptide-MHC binding, purified MHC/competitive/fluorescence; filed as Kd, often an IC50 or EC50 that approximates it; ≥ and ≤ were set here for values at or beyond the usual limits of such assays.
Experiment [12] has as its target HLA-A*24:03. The description is as above.
In experiment [13] the target is HLA-A*02:01. Described as above. Conditions: source organism: Escherichia coli.
The target of experiment [14] is HLA-B*46:01. The experiment is described as above. The note with it: source organism: Burkholderia pseudomallei K96243.
Experiment [15] concerns the target HLA-B*15:17. The description is as above. Conditions: source organism: Burkholderia pseudomallei K96243.
The target in experiment [16] is HLA-A*26:01. The experiment is described as above. The note with it: source organism: Burkholderia pseudomallei K96243.
Experiment [17] addresses HLA-B*57:01. Described as above. Conditions: source organism: Burkholderia pseudomallei K96243.
Experiment [18] addresses HLA-B*39:01. The description is as above. Conditions: source organism: Burkholderia pseudomallei K96243.
Experiment [19] has as its target HLA-A*03:01. The experiment is described as above.
Experiment [20] deals with HLA-B*18:01. The description is as above. Conditions: source organism: Burkholderia pseudomallei K96243.
The target of experiment [21] is HLA-B*27:03. The experiment is described as above. The note with it: source organism: Burkholderia pseudomallei K96243.
In experiment [22] the target is HLA-B*58:01. The experiment can be described thus: IEDB peptide-MHC binding, purified MHC/direct/fluorescence; filed as Kd, often an IC50 or EC50 that approximates it; ≥ and ≤ were set here for values at or beyond the usual limits of such assays.
Experiment [23] deals with HLA-A*69:01. Described as above. Conditions: source organism: Vibrio cholerae.
The target in experiment [24] is HLA-A*02:12. The description is as above. The note with it: source organism: Vibrio cholerae V52.
The target in experiment [25] is HLA-B*57:01. The description is as above. The note with it: source organism: Camelpox virus M-96.
Experiment [26] addresses HLA-B*15:01. Put plainly: IEDB peptide-MHC binding, purified MHC/competitive/fluorescence; ≥ and ≤ were set here for values at or beyond the usual limits of such assays. Conditions: source organism: Zaire ebolavirus.
Experiment [27] deals with HLA-A*24:02. The description is as above. The note with it: source organism: Zaire ebolavirus.
Experiment [28] concerns the target HLA-A*03:01. Described as above. Conditions: source organism: Zaire ebolavirus.
In experiment [29] the target is HLA-A*02:01. The description is as above. Conditions: source organism: Zaire ebolavirus.
Experiment [30] concerns the target HLA-A*11:01. Described as above. The note with it: source organism: Zaire ebolavirus.
[31] abbreviates: source organism: Brucella abortus 2308.
Setting [32] is: source organism: Bacillus anthracis.
Setting [33] is: source organism: Mammarenavirus guanaritoense.
The mark [34] stands for this setting: source organism: Yellow fever virus.
Setting [35] is: source organism: Vaccinia virus WR.
Setting [36] is: source organism: SARS coronavirus Tor2.
[37] abbreviates: source organism: Escherichia coli.
The mark [38] stands for this setting: source organism: Triticum aestivum.
The mark [39] stands for this setting: source organism: Burkholderia pseudomallei K96243.
Setting [40] is: source organism: Marburg virus - Musoke, Kenya, 1980.
Where [41] appears, read: source organism: Burkholderia mallei.
Setting [42] is: source organism: Camelpox virus M-96.
Setting [43] is: source organism: Yersinia pestis Antiqua.
Where [44] appears, read: source organism: Mammarenavirus brazilense.
[45] abbreviates: source organism: Salmonella enterica subsp. enterica serovar Typhi.

In general, Kd refers to the free concentration of one partner at which half of the binding sites on the other are occupied at equilibrium, for simple one-to-one binding. For orientation: IC50 means the concentration at which inhibition is half-maximal. High values mean a need for much substance, low ones inhibition by little substance.

Take RQMLHEIGR: the Kd in [1] (source organism: Paramagnetospirillum magnetotacticum MS-1) was found to be 1.17 nM; in [2] (setting [31]) it was 3220 nM; in [3] (setting [31]), 660 nM.

Consider GLHATFMPK, for which the Kd in [1] (source organism: Listeria monocytogenes EGD-e) is 151 nM; in experiment [2] (setting [32]), 37.2 nM; in experiment [3] (setting [32]) it was 6.2 nM.

As to KPINLSNSV, the Kd in experiment [4] (setting [33]) amounted to 2160 nM; in experiment [5] (setting [33]), 188 nM; in experiment [6] (setting [33]), 1150 nM; in [7] (setting [33]), 22.9 nM; in experiment [8] (setting [33]), 193 nM.

For RLYNFSFLN, the Kd was not above 1 nM in experiment [9] and 492 nM in experiment [2] (setting [32]).

Turning to KVVNRWLFR, the Kd in [1] (setting [34]) was 1.1 nM; in [3] (setting [34]), 4.5 nM.

As for SPPLISILMI, the Kd is 1150 nM in experiment [4] (setting [35]); not below 69900 nM in experiment [5] (setting [35]); 2220 nM in experiment [6] (setting [35]); 1010 nM in experiment [7] (setting [35]); 7630 nM in experiment [8] (setting [35]).

Take NPAWRKAVFI: the Kd is not below 41400 nM in experiment [4] (setting [36]); not below 69900 nM in experiment [5] (setting [36]); not below 41800 nM in experiment [6] (setting [36]); 3370 nM in experiment [7] (setting [36]); not below 69900 nM in [8] (setting [36]).

As to RTAFLRFWL, the Kd in experiment [10] (setting [37]) stood at 1.5 nM.

As for PPYCTIAPV, the Kd is not below 27400 nM in experiment [4] (setting [38]); not below 21500 nM in experiment [5] (setting [38]); 11600 nM in experiment [6] (setting [38]); 206 nM in experiment [7] (setting [38]); 1080 nM in experiment [8] (setting [38]).

As to ASDHFVETT, the Kd in [11] (source organism: Escherichia coli APEC O1) was not below 20000 nM.

As for LMQSLYDWI, the Kd in [12] (setting [37]) is 44.1 nM; in experiment [13] it was 36.2 nM.

As for QPQEQVPL, the Kd in [4] (setting [38]) is 41 nM; in [5] (setting [38]), not below 87800 nM; in experiment [6] (setting [38]) it was not below 87700 nM; in [7] (setting [38]), not below 87300 nM; in [8] (setting [38]) it was not below 43200 nM.

Sequence GWTETDSSF yielded a Kd in experiment [12] (source organism: Influenza A virus (A/parrot/Ulster/73(H7N1))) of 304 nM.

RMGVQMQRF gave a Kd in experiment [12] (source organism: Influenza A virus (A/swine/Hannover/1/1981(H1N1))) of 294 nM.

As for LMRRFRFTV, the Kd in [14] was not below 20000 nM; in experiment [15] it was not below 20000 nM; in [12] (setting [39]) it was not below 20000 nM; in [1] (setting [39]), 262 nM; in experiment [16], not below 20000 nM; in experiment [17] it was not below 20000 nM. In addition, the Kd in [18], in experiment [19] (setting [39]), in [20] and in [21] was not below 20000 nM throughout.

Turning to DPTFQLLNM, the Kd in experiment [4] (setting [35]) was 3350 nM; in experiment [5] (setting [35]), 1130 nM; in experiment [6] (setting [35]), 237 nM; in [7] (setting [35]), not below 77500 nM; in experiment [8] (setting [35]), not below 78100 nM.

With KAVEKGKNW, the values for the Kd in [10] (setting [40]) and in experiment [22] (setting [40]) were 17.7 nM and 91.5 nM, respectively.

Consider VPANSTVLSF, for which the Kd in experiment [4] (setting [36]) was 3250 nM; in experiment [5] (setting [36]), 355 nM; in experiment [6] (setting [36]) it was 95.2 nM; in experiment [7] (setting [36]), 1710 nM; in experiment [8] (setting [36]), 16900 nM.

AQHAPDAAK: the Kd in [1] (source organism: Burkholderia mallei SAVP1) was 172 nM; in experiment [2] (setting [41]), 2120 nM; in experiment [3] (setting [41]) it was 64.6 nM.

For the sequence MPASWVMRIM, the Kd in experiment [4] (setting [36]) was found to be 8.61 nM; in experiment [5] (setting [36]), 18.2 nM; in experiment [6] (setting [36]), 62.8 nM; in experiment [7] (setting [36]) it was 8.51 nM; in experiment [8] (setting [36]), 68.6 nM.

In the case of MLASIDLKY, in experiment [11] (source organism: Influenza A virus (A/swine/Finistere/127/99(H3N2))), the Kd amounted to 427 nM.

For the sequence FLILCSVLL, the Kd in experiment [23] turned out to be 4180 nM; in experiment [24], 7 nM.

For the sequence SPPIPMSRL, the Kd in [4] (setting [35]) was 912 nM; in experiment [5] (setting [35]) it was not below 53100 nM; in experiment [6] (setting [35]), 9290 nM; in [7] (setting [35]), 0.766 nM; in experiment [8] (setting [35]), not below 41500 nM.

With KSALNDFDF, the Kd in experiment [10] (setting [42]) worked out at 29.5 nM; in [22] (setting [42]) it was 26.8 nM; in [25] it was 252 nM.

With ITGLPPTEW, the Kd was determined as 2.3 nM in [10] (setting [31]) and 24.4 nM in experiment [22] (setting [31]).

Sequence KFHQIEKEF displayed a Kd in [12] (source organism: Influenza A virus (A/swine/Hong Kong/81/1978(H3N2))) of 0.6 nM.

Take WIYDPRNQK: the dissociation constant (Kd) in [1] (setting [43]) came out at 107 nM; in experiment [2] (setting [43]), 29.4 nM; in [3] (setting [43]), 375 nM.

On to VIYRGTTFA, for which the IC50 in [26] is not below 70900 nM; in [27] it was 45400 nM; in experiment [28], 4210 nM; in experiment [29], 1530 nM; in [30] it was 38000 nM.

Consider TPTQLAETI, for which the Kd came to 1420 nM in [4] (setting [44]); 660 nM in experiment [5] (setting [44]); 183 nM in [6] (setting [44]); 1800 nM in experiment [7] (setting [44]); 15300 nM in experiment [8] (setting [44]).

Take RVYRRRLAQ: the Kd in [1] (source organism: Burkholderia pseudomallei 1106a) was 40.5 nM; in experiment [2] (setting [41]) it was 323 nM; in experiment [3] (setting [41]) it was not below 20000 nM.

Regarding VSFNQNLEY, the Kd in [11] (source organism: Influenza A virus (A/goose/Guangdong/1/1996(H5N1))) stood at 25.9 nM.

As to ATTFARFLY, the Kd in experiment [19] (setting [45]) is 202 nM; in experiment [11] (setting [45]), 19.3 nM.
